Test system: MPC-11 mouse myeloma cells
Test: MPC-11 myeloma tumor growth in syngeneic Balb/c mice
Assay type: in vivo
Protocol: MPC-11 myeloma. Mouse MPC-11 myeloma cells are detached with trypsin/EDTA, washed with PBS, brought to a concentration of 5×10^5 cells/0.2 ml and inoculated subcutaneously at the right flank of 6-8-weeks-old Balb/c mice. Three days after cell inoculation, mice are randomly assigned to 2 cohorts (6 mice each) receiving (a) vehicle (PBS); and (b) A54 mAb (500 μg/mouse, 3 times/week. Xenograft size is determined on day 7, 10 and 14 by externally measuring tumors in 2 dimensions using a caliper. At the end of the experiment, mice are sacrificed and tumor xenografts are removed and weighed.
Briefly, Balb/c mice were inoculated (s.c.) with MPC-11 mouse myeloma cells (0.5×10^6). Treatment with mAb A54 (250 or 500 μg/mouse every other day) was initiated two days after cell inoculation. Control cells were administrated with PBS. Xenograft size was determined twice a week by externally measuring the tumors in two dimensions using a caliper, and tumor volume was calculated (FIG. 6A). At the end of the experiment (Day 14) xenografts were removed, weighed (FIG. 6B), fixed in formalin and photographed (FIG. 6C). […] The above results imply that the development of primary tumors can be restrained by the anti-heparanase mAb A54.

B1: mAb A54: heparanase-neutralizing murine monoclonal antibody, IgG1-Kappa; VH SEQ ID NO: 7, VL SEQ ID NO: 8; binds HBD-II of heparanase (antibody, listed as Mus musculus, V domains shown)
VH: QVQLQQSGAELAKPGASVRMSCKASGYTFTNYWMHWVKQRPGQGLEWIGYINPTTGYTEYNQKFKDKATLTADKSSSTAYMQLSSLTSEDSAVYYCARGGAGYDYDEDYAMDYWGQGTSVTVSS
VL: DIVLTQSPASLAVSLGQRATISCRASESVEYFGTSYMNWYQQKPGQPPKLLIYLASILESGIPARFSGSGSGTDFTLNIHPVEEEDAATYYCQQSNEDPYTFGGGTKLEIK
attenuation of myeloma tumor growth (250 or 500 μg/mouse every other day from day 2, day 14, vs PBS): 4 fold | dose dependence of tumor growth attenuation (250 vs 500 μg/mouse every other day): higher dose of antibody was more effective

Source: US12503518B2, “Heparanase-neutralizing A54 monoclonal antibody” (TECHNION RESEARCH & DEVELOPMENT FOUNDATION LIMITED, priority 2020, dated 2025)
